Laboratory results: publication PMC11565809 (bioRxiv, 2024)

Molecular target: human factor H (human, UniProt P08603 19-1231)
Experiment: ELISA

human factor H, sequence (P08603 19-1231): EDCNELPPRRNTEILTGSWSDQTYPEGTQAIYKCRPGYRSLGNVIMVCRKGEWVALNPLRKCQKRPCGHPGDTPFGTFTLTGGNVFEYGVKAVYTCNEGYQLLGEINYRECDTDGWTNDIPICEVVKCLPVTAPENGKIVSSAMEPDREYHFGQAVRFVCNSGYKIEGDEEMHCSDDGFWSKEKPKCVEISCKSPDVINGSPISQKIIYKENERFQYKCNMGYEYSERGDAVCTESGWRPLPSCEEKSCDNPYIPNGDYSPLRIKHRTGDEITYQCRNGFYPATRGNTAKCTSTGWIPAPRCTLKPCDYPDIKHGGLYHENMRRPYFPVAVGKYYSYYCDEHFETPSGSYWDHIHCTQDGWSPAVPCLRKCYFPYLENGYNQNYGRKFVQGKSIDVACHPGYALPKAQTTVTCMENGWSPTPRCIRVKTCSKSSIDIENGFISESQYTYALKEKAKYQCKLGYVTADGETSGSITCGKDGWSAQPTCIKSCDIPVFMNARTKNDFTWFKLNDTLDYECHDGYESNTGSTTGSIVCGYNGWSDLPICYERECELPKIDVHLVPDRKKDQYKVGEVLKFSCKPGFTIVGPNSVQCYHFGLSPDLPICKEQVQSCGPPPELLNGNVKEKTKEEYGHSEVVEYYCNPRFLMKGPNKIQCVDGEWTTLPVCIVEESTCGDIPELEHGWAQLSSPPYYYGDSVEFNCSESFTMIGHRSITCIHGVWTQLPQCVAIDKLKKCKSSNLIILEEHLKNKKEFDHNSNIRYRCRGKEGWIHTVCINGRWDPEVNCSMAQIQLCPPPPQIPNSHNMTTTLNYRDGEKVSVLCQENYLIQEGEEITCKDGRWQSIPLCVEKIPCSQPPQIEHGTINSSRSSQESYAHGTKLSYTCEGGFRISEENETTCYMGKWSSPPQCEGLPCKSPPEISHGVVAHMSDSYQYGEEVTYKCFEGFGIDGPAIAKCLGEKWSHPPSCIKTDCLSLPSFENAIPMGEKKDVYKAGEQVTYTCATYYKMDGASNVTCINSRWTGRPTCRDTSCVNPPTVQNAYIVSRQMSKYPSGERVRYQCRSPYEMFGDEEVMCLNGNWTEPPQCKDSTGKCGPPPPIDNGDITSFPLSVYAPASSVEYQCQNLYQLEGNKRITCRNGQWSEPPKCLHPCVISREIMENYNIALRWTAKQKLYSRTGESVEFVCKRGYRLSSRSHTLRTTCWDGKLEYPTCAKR

B1: histidine-tagged CspZ (natural protein, B. burgdorferi)
chain: RLNQRNINELKIFVEKAKYYSIKLDAIYNECTGAYNDIMTYSEGTFSDQSKVNQAISIFKKDNKIVNKFKELEKIIEEYKPMFLSKLIDDFAIELDQAVDNDVSNARHVADSYKKLRKSVVLAYIESFDVISSKFVDSKFVEASKKFVNKAKEFVEENDLIALECIVKTIGDMVNDREINSRSRYNNFYKKEADFLGAAVELEGAYKAIKQTLL
B1: binds.
